What was measured:
[1] = target: HPV16 L1 protein (human papillomavirus type 16) (UniProt P03101)
[2] = target: L1-I peptide (HPV16 L1 residues 474-488) (human papillomavirus type 16); assay: ITC; peptide (1 mM) in 50 mM phosphate buffer pH 7.4 in the sample cell; 3HP-β-LG or β-LG (50 μM) in the titration needle; 18°C, 2 μl injections
[3] = target: L1-II peptide (HPV16 L1 residues 493-505) (human papillomavirus type 16); assay: as above

UniProt P03101, sequence (P03101 whole entry, the tested form may be a part): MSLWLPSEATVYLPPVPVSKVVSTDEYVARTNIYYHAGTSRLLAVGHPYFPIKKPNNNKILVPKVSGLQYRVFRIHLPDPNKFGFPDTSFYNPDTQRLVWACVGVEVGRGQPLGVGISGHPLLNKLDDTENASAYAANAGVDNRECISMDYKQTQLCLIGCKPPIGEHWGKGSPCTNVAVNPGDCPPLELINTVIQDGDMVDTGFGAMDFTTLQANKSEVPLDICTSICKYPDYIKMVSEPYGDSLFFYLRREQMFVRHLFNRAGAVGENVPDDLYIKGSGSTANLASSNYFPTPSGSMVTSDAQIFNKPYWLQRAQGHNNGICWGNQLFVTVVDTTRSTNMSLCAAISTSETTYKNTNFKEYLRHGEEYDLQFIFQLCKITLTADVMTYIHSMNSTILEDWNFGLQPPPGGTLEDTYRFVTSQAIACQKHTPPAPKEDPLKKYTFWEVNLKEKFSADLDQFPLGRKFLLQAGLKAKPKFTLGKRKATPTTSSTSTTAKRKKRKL

3-hydroxyphthalic anhydride (3HP)-modified bovine beta-lactoglobulin (from UniProt P02754 17-178)
inhibition of HPV16 PsV entry into HeLa cells (luciferase), IC50 [1]: 0.59 µg/mL | Ka [2]: 231000 M⁻¹ | Ka [3]: 104000 M⁻¹
